B1: CPEB3 Ribozyme (parent)
chain: GGGGGCCACAGCAGAAGCGUUCACGUCGCGGCCCCUGUCAGAUUCUGGUGAAUCUGCGAAUUCUGCUGU

Variants of: B1
Test: self-cleavage, relative activity (ratio to wild type); higher = more cleavage; co-transcriptional

Variant	self-cleavage
GGAGGCCACAGCAGAAGCGUUCACGUCGCGGCCCCUGUCAGAUUCUGGUGAAUCUGCGAAUUCUCCUGU [G3A G65C]	0.338
GGAGGCCACAGCAGAAGCGUUCACGUCGCGUCCCCUGUCAGAUUCUGGUGAAUCUGCGAAUUCUGCUGU [G3A G31U]	0.154
GGAGGCCACAGCAGAAGCGUUCACGUCGCGGCCCCUCUCAGAUUCUGGUGAAUCUGCGAAUUCUGCUGU [G3A G37C]	0.126
GUGGGCCACAGCAGAAGCGUUCACGUCGCGGCCCCUGUCAGAUUCUGGUGAAUCUGCGAAUUCUGCUGC [G2U U69C]	0.208
GUGGGCCACAGCAGAAGCGUUCACGUCGCGGCCCCUGUCAGAUUCUGGUGAAUCUGCGAAUUCUGCUGA [G2U U69A]	0.124
GGAGGCCACAGCAGAAGCGUUCACGUCGCGGCCCCUGUGAGAUUCUGGUGAAUCUGCGAAUUCUGCUGU [G3A C39G]	0.39
GGAGGCCACAGCAGAAGCGUUCACGUCGCGGCCCCUGUCAGAUUCUAGUGAAUCUGCGAAUUCUGCUGU [G3A G47A]	0.65
GGAGGCCACAGCAGAAGCGUUCACGUCGCGGCCCCUGUCAGAUUCCGGUGAAUCUGCGAAUUCUGCUGU [G3A U46C]	0.597
GGAGGCCACAGCAGAAGCGUUCACGUCGCGGCCCCUGUCAGAUUCAGGUGAAUCUGCGAAUUCUGCUGU [G3A U46A]	0.67
GGAGGCCACAGCAGAAGCGUUCACGUGGCGGCCCCUGUCAGAUUCUGGUGAAUCUGCGAAUUCUGCUGU [G3A C27G]	0.056
GGAGGCCACAGCAGAAGCGUUCACGUUGCGGCCCCUGUCAGAUUCUGGUGAAUCUGCGAAUUCUGCUGU [G3A C27U]	0.0889
GGAGGCCACAGCAGAAGCGUUCACGUAGCGGCCCCUGUCAGAUUCUGGUGAAUCUGCGAAUUCUGCUGU [G3A C27A]	0.153
GGAGGCCACAGCAGAAGCGUUCACGUCGCGGCCCCUGUCUGAUUCUGGUGAAUCUGCGAAUUCUGCUGU [G3A A40U]	0.379
GGAGGCCACAGCAGAAGCGUUCACGUCGCGGCCCCUGUCCGAUUCUGGUGAAUCUGCGAAUUCUGCUGU [G3A A40C]	0.166
GGAGGCCACAGCAGAAGCGUUCACGUCGCGGCCCCUGUCAGAUUCUGGUGAAUCUCCGAAUUCUGCUGU [G3A G56C]	0.253
GGAGGCCACAGCAGAAGCGUUCUCGUCGCGGCCCCUGUCAGAUUCUGGUGAAUCUGCGAAUUCUGCUGU [G3A A23U]	0.79
GGAGGCCACAGCAGAAGCGUUCACGUCGCGGCCCCUGUCAGACUCUGGUGAAUCUGCGAAUUCUGCUGU [G3A U43C]	0.41
GGAGGCCACAGCAGAAGCGUUCACGUCGCGGCCCCUGUCAGAGUCUGGUGAAUCUGCGAAUUCUGCUGU [G3A U43G]	0.422
GGAGGCCACAGCAGAAGCGUUCACGUCGCGGCCCCUGUCAGAAUCUGGUGAAUCUGCGAAUUCUGCUGU [G3A U43A]	0.356
GGAGGCCACAGCAGAAGCGUUCACGUCGCGGCCCCAGUCAGAUUCUGGUGAAUCUGCGAAUUCUGCUGU [G3A U36A]	0.0867
GGAGGCCACAGCAGAAGCGUUCACGUCGCGGCCCCGGUCAGAUUCUGGUGAAUCUGCGAAUUCUGCUGU [G3A U36G]	0.206
GGAGGCCACAGCAGAAGCGUUCACGUCGCGGCCCCCGUCAGAUUCUGGUGAAUCUGCGAAUUCUGCUGU [G3A U36C]	0.433
GUGGGCCACAGCAGAAGCGUUCACGUCGCGGCCCCUGUCAGAUUCUGGUGAAUCUGCGAAUUCCGCUGU [G2U U64C]	0.0967
GUGGGCCACAGCAGAAGCGUUCACGUCGCGGCCCCUGUCAGAUUCUGGUGAAUCUGCGAAUUCGGCUGU [G2U U64G]	0.0605
GGAGGCCAUAGCAGAAGCGUUCACGUCGCGGCCCCUGUCAGAUUCUGGUGAAUCUGCGAAUUCUGCUGU [G3A C9U]	0.886
GGAGGCCACAGCAGAAGCGUUCACGUCGCGGCCCAUGUCAGAUUCUGGUGAAUCUGCGAAUUCUGCUGU [G3A C35A]	0.102

Variant	self-cleavage
GGAGGCCACAGCAGAAGCGUUCACCUCGCGGCCCCUGUCAGAUUCUGGUGAAUCUGCGAAUUCUGCUGU [G3A G25C]	0.0661
GGAGGCCACAGCAGAAGCGUUCACAUCGCGGCCCCUGUCAGAUUCUGGUGAAUCUGCGAAUUCUGCUGU [G3A G25A]	0.0615
GGAGGCCACAGCAGAAGCGUUCACGUCGCUGCCCCUGUCAGAUUCUGGUGAAUCUGCGAAUUCUGCUGU [G3A G30U]	0.107
GGAGGCCACAGCAGAAGCGUUCACGUCGCGGCCCCUGUCAGAUUCUGGUGAAUCUGCGAAGUCUGCUGU [G3A U61G]	0.278
GGAGGCAACAGCAGAAGCGUUCACGUCGCGGCCCCUGUCAGAUUCUGGUGAAUCUGCGAAUUCUGCUGU [G3A C7A]	0.0813
GGAGGCGACAGCAGAAGCGUUCACGUCGCGGCCCCUGUCAGAUUCUGGUGAAUCUGCGAAUUCUGCUGU [G3A C7G]	0.112
GGAGGCCACAGCAUAAGCGUUCACGUCGCGGCCCCUGUCAGAUUCUGGUGAAUCUGCGAAUUCUGCUGU [G3A G14U]	0.29
GGAGGCCACAGCAAAAGCGUUCACGUCGCGGCCCCUGUCAGAUUCUGGUGAAUCUGCGAAUUCUGCUGU [G3A G14A]	0.329
GUGGGCCACAGCAGAAGCGUUCACGUCGCGGCCCCUGUCAGAUUCUGGUGAAUCUGCGAAUCCUGCUGU [G2U U62C]	0.108
GUGGGCCACAGCAGAAGCGUUCACGUCGCGGCCCCUGUCAGAUUCUGGUGAAUCUGCGAAUACUGCUGU [G2U U62A]	0.0777
GGAGGCCACAGCAGAGGCGUUCACGUCGCGGCCCCUGUCAGAUUCUGGUGAAUCUGCGAAUUCUGCUGU [G3A A16G]	0.315
GGAGGCCACAGCAGAAGCGUUCACGUCGCGGCCCCUGUCAGAUUCUGGCGAAUCUGCGAAUUCUGCUGU [G3A U49C]	0.705
GGAGGCCACAGCAGAAGCGUUCACGUCGCGGCCCCUGCCAGAUUCUGGUGAAUCUGCGAAUUCUGCUGU [G3A U38C]	0.419
GGAGGCCACAGCAGAAGCGUUCACGUCGCGGCCCCUGACAGAUUCUGGUGAAUCUGCGAAUUCUGCUGU [G3A U38A]	0.514
GGAGGCCACAGCAGAAGCGUUUACGUCGCGGCCCCUGUCAGAUUCUGGUGAAUCUGCGAAUUCUGCUGU [G3A C22U]	0.0997
GGAGGCCACAGCAGAAGCGUUCACGUCGCGGCCCCUGUCAGAUUAUGGUGAAUCUGCGAAUUCUGCUGU [G3A C45A]	0.544
GGAGGCCACAGCAGAAGCGUUCACGUCGCGGCCCCUGUCAGAUUGUGGUGAAUCUGCGAAUUCUGCUGU [G3A C45G]	0.536
GGAGCCCACAGCAGAAGCGUUCACGUCGCGGCCCCUGUCAGAUUCUGGUGAAUCUGCGAAUUCUGCUGU [G3A G5C]	0.123
GUGGGCCACAGCAGAAGCGUUCACGUCGCGGCCCCUGUCAGAUUCUGGUGAAUCUGCGAAGUCUGCUGU [G2U U61G]	0.112
GUGGGCCACAGCAGAAGCGUUCACGUCGCGGCCCCUGUCAGAUUCUGGUGAAUCUGCGAAAUCUGCUGU [G2U U61A]	0.0837
GGAGGCCACAGCAGAAGCGUUCACGUCGCGGCCCCUGUCAGAUUCUGGUGAAUCUGCGAAUUUUGCUGU [G3A C63U]	0.627
GGAGGCCACAGCAGAAGCGUUCACGUCGCGGCCCCUGUCAGAUUCUGGUGAAUCAGCGAAUUCUGCUGU [G3A U55A]	0.395
GGAGGCCACAGCAGAAGCGUUCACGUCGCGGCCCCUGUCAGAUUCUGGUGAAUCUGCGCAUUCUGCUGU [G3A A59C]	0.199
GGAGGCCACAGCAGAAGCGUUCACGUCGCGGCACCUGUCAGAUUCUGGUGAAUCUGCGAAUUCUGCUGU [G3A C33A]	0.193
GGAGGCCACAGCAGAAGCGUUCACGUCGCGGCCCCUGUCAGAUUCUGCUGAAUCUGCGAAUUCUGCUGU [G3A G48C]	0.698
GGAGGCCACAGCAGAAGCGUUCACGUCGCGGCCCCUGUCAGAUUCUGGUGAAUCUGCCAAUUCUGCUGU [G3A G58C]	0.338

Variant	self-cleavage
GGAGGCCACAGCAGAAGCGUUCACGUCGCGGCCCCUGUCAGAUUCUGGUGAAUCUGCAAAUUCUGCUGU [G3A G58A]	0.315
GGAGGCCACAGCAGAAGCGUUCACGCCGCGGCCCCUGUCAGAUUCUGGUGAAUCUGCGAAUUCUGCUGU [G3A U26C]	0.571
GGAGGCCACAGCAGAAGCGUUCACGUCGCGGCCUCUGUCAGAUUCUGGUGAAUCUGCGAAUUCUGCUGU [G3A C34U]	0.91
GGAGGGCACAGCAGAAGCGUUCACGUCGCGGCCCCUGUCAGAUUCUGGUGAAUCUGCGAAUUCUGCUGU [G3A C6G]	0.0163
GGAGGACACAGCAGAAGCGUUCACGUCGCGGCCCCUGUCAGAUUCUGGUGAAUCUGCGAAUUCUGCUGU [G3A C6A]	0.0773
GGAGGUCACAGCAGAAGCGUUCACGUCGCGGCCCCUGUCAGAUUCUGGUGAAUCUGCGAAUUCUGCUGU [G3A C6U]	0.245
GGAGGCCACAGCAGAAGCGCUCACGUCGCGGCCCCUGUCAGAUUCUGGUGAAUCUGCGAAUUCUGCUGU [G3A U20C]	0.0517
GGAGGCCACAGCAGAAGCGGUCACGUCGCGGCCCCUGUCAGAUUCUGGUGAAUCUGCGAAUUCUGCUGU [G3A U20G]	0.11
GGAGGCCGCAGCAGAAGCGUUCACGUCGCGGCCCCUGUCAGAUUCUGGUGAAUCUGCGAAUUCUGCUGU [G3A A8G]	0.527
GGAGGCCCCAGCAGAAGCGUUCACGUCGCGGCCCCUGUCAGAUUCUGGUGAAUCUGCGAAUUCUGCUGU [G3A A8C]	0.721
GGAGGCCACAGCAGAAGCGUUCACGUCGCGGCCCCUGUCAGAUUCUGGUGAAUCUGCGACUUCUGCUGU [G3A A60C]	0.152
GGAGGCCACAGCAGAAGCGUUCACGUCGCGGCCCCUGUCAGAUUCUGGUGAAUCUGCGAGUUCUGCUGU [G3A A60G]	0.32
GGAGGCCACAGCAGAAGGGUUCACGUCGCGGCCCCUGUCAGAUUCUGGUGAAUCUGCGAAUUCUGCUGU [G3A C18G]	0.0813
GGAGGCCACAGCAGAAGAGUUCACGUCGCGGCCCCUGUCAGAUUCUGGUGAAUCUGCGAAUUCUGCUGU [G3A C18A]	0.066
GUGGGCCACAGCAGAAGCGUUCACGUCGCGGCCCCUGUCAGAUUCUGGCGAAUCUGCGAAUUCUGCUGU [G2U U49C]	0.0667
GUGGGCCACAGCAGAAGCGUUCACGUCGCGGCCCCUGUCAGAUUCUGGGGAAUCUGCGAAUUCUGCUGU [G2U U49G]	0.0431
GUGGGCCACAGCAGAAGCGUUCACGUCGCGGCCCCUGUCAGAUUCUGGUGAAUCGGCGAAUUCUGCUGU [G2U U55G]	0.0565
GUGGGCCACAGCAGAAGCGUUCACGUCGCGGCCCCUGUCAGAUUCUGGUGAAUCCGCGAAUUCUGCUGU [G2U U55C]	0.0989
GGAGGCCACAGCAGAAGCGUUCACGUCGCGGCCCCUGUCAGAUUCUGGUGAAUCUGCGAAUUCAGCUGU [G3A U64A]	0.458
GGAGGCCACAGCAGAAGCGUUCACGUCGCGGCCCCUGUCACAUUCUGGUGAAUCUGCGAAUUCUGCUGU [G3A G41C]	0.198
GGAGGCCACAGCAGAAGCGUUCACGUCGCGGCCCCUGUCAGAUUCUGGUGAAACUGCGAAUUCUGCUGU [G3A U53A]	0.44
GGAGGCCACAGCAGAAGCGUUCACGUCGCGGCCCCUGUCAGAUUCUGGUUAAUCUGCGAAUUCUGCUGU [G3A G50U]	0.582
GGAGGCCACAGCAGAAGCGUUCACGUCGCGGCCCCUGUCAGAUUCUGGUCAAUCUGCGAAUUCUGCUGU [G3A G50C]	0.595
GGAGGCCACAGCAGAAGCGUUCACGUCGCGGCCCCUGUCAGAUUCUGGUGGAUCUGCGAAUUCUGCUGU [G3A A51G]	0.584
GGAGGCCACAGCCGAAGCGUUCACGUCGCGGCCCCUGUCAGAUUCUGGUGAAUCUGCGAAUUCUGCUGU [G3A A13C]	0.298
GGAGGCCACAGCAGAAGCGUUCACGUCGCGGCCCCUGUCAGAUUCUGGUGACUCUGCGAAUUCUGCUGU [G3A A52C]	0.577
